Results published in the supplement of paper PMC9112550, “Optimization of the antimicrobial peptide Bac7 by deep mutational scanning” (BMC Biology, 2022).

Test system: Escherichia coli TOP10
Experiment: shrunken log2 fold change of peptide-encoding DNA abundance (4.5 h post-induction vs induction); higher = less antimicrobial activity (less host growth inhibition)
Settings: time post-induction: 4.5 h; library: site-saturation at positions 5, 18, 19, 20
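Note: peptides expressed intracellularly from a pBAD plasmid library in pooled LB shake-flask culture, induced with 0.3% L-arabinose, DNA abundance read by NGS, three biological replicates, DESeq2 with apeglm shrinkage.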

Sequence | shrunken log2 fold change
RRIRNRPPRLPRPRPRPVCPPRP | -0.14
RRIRNRPPRLPRPRPRPVCYPRP | -0.21
RRIRNRPPRLPRPRPRPVFSPRP | -0.192
RRIRNRPPRLPRPRPRPVHDPRP | 0.068
RRIRNRPPRLPRPRPRPVILPRP | -0.61
RRIRNRPPRLPRPRPRPVMIPRP | -0.311
RRIRNRPPRLPRPRPRPVNDPRP | -0.15
RRIRNRPPRLPRPRPRPVNFPRP | -0.157
RRIRNRPPRLPRPRPRPVQFPRP | -0.124
RRIRNRPPRLPRPRPRPVRCPRP | 0.0872
RRIRNRPPRLPRPRPRPVRFPRP | 0.0789
RRIRNRPPRLPRPRPRPVRPPRP | 0.555
RRIRNRPPRLPRPRPRPVRRPRP | 0.112
RRIRNRPPRLPRPRPRPVSSPRP | -0.00623
RRIRNRPPRLPRPRPRPVVQPRP | 0.0488
RRIRNRPPRLPRPRPRPVWNPRP | -0.0723
RRIRNRPPRLPRPRPRPVWYPRP | -0.326
RRIRNRPPRLPRPRPRPVYCPRP | -0.688
RRIRNRPPRLPRPRPRPVYNPRP | -0.381
RRIRNRPPRLPRPRPRPVYVPRP | -0.284
RRIRNRPPRLPRPRPRPWAGPRP | 0.163
RRIRNRPPRLPRPRPRPWCFPRP | -0.472
RRIRNRPPRLPRPRPRPWCNPRP | -0.507
RRIRNRPPRLPRPRPRPWDNPRP | -0.0545
RRIRNRPPRLPRPRPRPWEAPRP | -0.173

Sequence | shrunken log2 fold change
RRIRNRPPRLPRPRPRPWFAPRP | 0.801
RRIRNRPPRLPRPRPRPWGLPRP | -0.123
RRIRNRPPRLPRPRPRPWGPPRP | -0.37
RRIRNRPPRLPRPRPRPWHVPRP | 0.0188
RRIRNRPPRLPRPRPRPWICPRP | -0.192
RRIRNRPPRLPRPRPRPWKHPRP | -0.347
RRIRNRPPRLPRPRPRPWKRPRP | -0.0326
RRIRNRPPRLPRPRPRPWLGPRP | 0.0222
RRIRNRPPRLPRPRPRPWPDPRP | 0.646
RRIRNRPPRLPRPRPRPWQIPRP | -0.102
RRIRNRPPRLPRPRPRPWRNPRP | 0.0352
RRIRNRPPRLPRPRPRPWSPPRP | -0.245
RRIRNRPPRLPRPRPRPWTFPRP | -0.0614
RRIRNRPPRLPRPRPRPWVIPRP | -0.552
RRIRNRPPRLPRPRPRPWVWPRP | -0.115
RRIRNRPPRLPRPRPRPWWVPRP | -0.226
RRIRNRPPRLPRPRPRPWYKPRP | -0.00149
RRIRNRPPRLPRPRPRPYAIPRP | -0.105
RRIRNRPPRLPRPRPRPYCEPRP | -0.469
RRIRNRPPRLPRPRPRPYDCPRP | -0.109
RRIRNRPPRLPRPRPRPYELPRP | -0.0122
RRIRNRPPRLPRPRPRPYEQPRP | -0.54
RRIRNRPPRLPRPRPRPYGDPRP | -1.01
RRIRNRPPRLPRPRPRPYGQPRP | -0.124
RRIRNRPPRLPRPRPRPYIQPRP | -0.244

Sequence | shrunken log2 fold change
RRIRNRPPRLPRPRPRPYKRPRP | -1.27
RRIRNRPPRLPRPRPRPYLDPRP | -0.181
RRIRNRPPRLPRPRPRPYLMPRP | -0.287
RRIRNRPPRLPRPRPRPYNRPRP | 0.00748
RRIRNRPPRLPRPRPRPYNVPRP | -0.526
RRIRNRPPRLPRPRPRPYPNPRP | -0.3
RRIRNRPPRLPRPRPRPYRHPRP | -0.01
RRIRNRPPRLPRPRPRPYRLPRP | -0.00674
RRIRNRPPRLPRPRPRPYSRPRP | -0.00947
RRIRNRPPRLPRPRPRPYVHPRP | -0.253
RRIRNRPPRLPRPRPRPYVSPRP | -0.0285
RRIRNRPPRLPRPRPRPYWIPRP | -1.71
RRIRPRPPRLPRPRPRPACIPRP | -0.25
RRIRPRPPRLPRPRPRPADHPRP | -0.015
RRIRPRPPRLPRPRPRPADVPRP | 0.0118
RRIRPRPPRLPRPRPRPAECPRP | -0.223
RRIRPRPPRLPRPRPRPAELPRP | 0.335
RRIRPRPPRLPRPRPRPAFVPRP | 0.149
RRIRPRPPRLPRPRPRPAGKPRP | -0.0291
RRIRPRPPRLPRPRPRPAGSPRP | 0.206
RRIRPRPPRLPRPRPRPAHGPRP | 0.708
RRIRPRPPRLPRPRPRPAIEPRP | -0.0623
RRIRPRPPRLPRPRPRPAKIPRP | 0.0125
RRIRPRPPRLPRPRPRPAKNPRP | 0.235
RRIRPRPPRLPRPRPRPAMCPRP | -0.0389

Sequence | shrunken log2 fold change
RRIRPRPPRLPRPRPRPAMDPRP | 0.0161
RRIRPRPPRLPRPRPRPAMMPRP | -0.214
RRIRPRPPRLPRPRPRPANQPRP | 0.0414
RRIRPRPPRLPRPRPRPAQWPRP | 0.384
RRIRPRPPRLPRPRPRPARLPRP | 0.00523
RRIRPRPPRLPRPRPRPARWPRP | 0.44
RRIRPRPPRLPRPRPRPASKPRP | 0.022
RRIRPRPPRLPRPRPRPASQPRP | 0.0417
RRIRPRPPRLPRPRPRPATNPRP | -0.105
RRIRPRPPRLPRPRPRPAWQPRP | 0.277
RRIRPRPPRLPRPRPRPAYMPRP | -0.231
RRIRPRPPRLPRPRPRPCAFPRP | -0.148
RRIRPRPPRLPRPRPRPCAIPRP | -1.01
RRIRPRPPRLPRPRPRPCALPRP | -0.0401
RRIRPRPPRLPRPRPRPCCVPRP | 0.182
RRIRPRPPRLPRPRPRPCEMPRP | 2.11
RRIRPRPPRLPRPRPRPCFEPRP | 0.0232
RRIRPRPPRLPRPRPRPCHVPRP | -0.0695
RRIRPRPPRLPRPRPRPCHWPRP | 0.0406
RRIRPRPPRLPRPRPRPCIMPRP | -1.1
RRIRPRPPRLPRPRPRPCKCPRP | -0.275
RRIRPRPPRLPRPRPRPCLHPRP | -0.248
RRIRPRPPRLPRPRPRPCLNPRP | -0.35
RRIRPRPPRLPRPRPRPCNDPRP | -0.456
RRIRPRPPRLPRPRPRPCNIPRP | -0.554

Sequence | shrunken log2 fold change
RRIRPRPPRLPRPRPRPCNMPRP | 0.0288
RRIRPRPPRLPRPRPRPCPFPRP | -0.371
RRIRPRPPRLPRPRPRPCPVPRP | -0.0845
RRIRPRPPRLPRPRPRPCRRPRP | 0.117
RRIRPRPPRLPRPRPRPCSKPRP | 0.0051
RRIRPRPPRLPRPRPRPCTFPRP | -0.00278
RRIRPRPPRLPRPRPRPCVDPRP | -0.149
RRIRPRPPRLPRPRPRPCWLPRP | -0.018
RRIRPRPPRLPRPRPRPCYHPRP | -0.428
RRIRPRPPRLPRPRPRPDAKPRP | 0.201
RRIRPRPPRLPRPRPRPDCRPRP | -0.0347
RRIRPRPPRLPRPRPRPDDEPRP | 0.331
RRIRPRPPRLPRPRPRPDFRPRP | -0.184
RRIRPRPPRLPRPRPRPDHYPRP | -0.203
RRIRPRPPRLPRPRPRPDIAPRP | -0.0378
RRIRPRPPRLPRPRPRPDLEPRP | 0.063
RRIRPRPPRLPRPRPRPDLKPRP | -0.0801
RRIRPRPPRLPRPRPRPDNHPRP | -0.521
RRIRPRPPRLPRPRPRPDPAPRP | 0.326
RRIRPRPPRLPRPRPRPDPIPRP | 0.0782
RRIRPRPPRLPRPRPRPDPKPRP | 0.367
RRIRPRPPRLPRPRPRPDPMPRP | 0.4
RRIRPRPPRLPRPRPRPDQKPRP | -0.0552
RRIRPRPPRLPRPRPRPDSAPRP | -0.18
RRIRPRPPRLPRPRPRPDSFPRP | -0.0889

Sequence | shrunken log2 fold change
RRIRPRPPRLPRPRPRPDSLPRP | -0.257
RRIRPRPPRLPRPRPRPDSPPRP | 0.0152
RRIRPRPPRLPRPRPRPDTIPRP | -0.247
RRIRPRPPRLPRPRPRPDTNPRP | -0.239
RRIRPRPPRLPRPRPRPDVMPRP | 0.16
RRIRPRPPRLPRPRPRPDWCPRP | -0.179
RRIRPRPPRLPRPRPRPDWPPRP | 0.524
RRIRPRPPRLPRPRPRPDYFPRP | -0.503
RRIRPRPPRLPRPRPRPDYRPRP | -0.321
RRIRPRPPRLPRPRPRPDYTPRP | -0.957
RRIRPRPPRLPRPRPRPEAPPRP | 0.53
RRIRPRPPRLPRPRPRPECHPRP | -0.0419
RRIRPRPPRLPRPRPRPECIPRP | -0.0733
RRIRPRPPRLPRPRPRPEDGPRP | 0.0827
RRIRPRPPRLPRPRPRPEFEPRP | -0.0475
RRIRPRPPRLPRPRPRPEFMPRP | 0.0793
RRIRPRPPRLPRPRPRPEGSPRP | 0.0654
RRIRPRPPRLPRPRPRPEGVPRP | 0.103
RRIRPRPPRLPRPRPRPEGYPRP | 0.128
RRIRPRPPRLPRPRPRPEIMPRP | -0.0268
RRIRPRPPRLPRPRPRPEIRPRP | 0.0106
RRIRPRPPRLPRPRPRPEIWPRP | 0.374
RRIRPRPPRLPRPRPRPEKKPRP | -0.044
RRIRPRPPRLPRPRPRPEKVPRP | -0.127
RRIRPRPPRLPRPRPRPELCPRP | 0.277
